Source: IntAct's records for PubMed 15141091

B1: Homeobox protein SIX1 (Mus musculus), Q62231 (parent)
chain: MSMLPSFGFTQEQVACVCEVLQQGGNLERLGRFLWSLPACDHLHKNESVLKAKAVVAFHRGNFRELYKILESHQFSPHNHPKLQQLWLKAHYVEAEKLRGRPLGAVGKYRVRRKFPLPRTIWDGEETSYCFKEKSRGVLREWYAHNPYPSPREKRELAEATGLTTTQVSNWFKNRRQRDRAAEAKERENTENNNSSSNKQNQLSPLEGGKPLMSSSEEEFSPPQSPDQNSVLLLQSNMGHARSSNYSLPGLTASQPSHGLQAHQHQLQDSLLGPLTSSLVDLGS
partner: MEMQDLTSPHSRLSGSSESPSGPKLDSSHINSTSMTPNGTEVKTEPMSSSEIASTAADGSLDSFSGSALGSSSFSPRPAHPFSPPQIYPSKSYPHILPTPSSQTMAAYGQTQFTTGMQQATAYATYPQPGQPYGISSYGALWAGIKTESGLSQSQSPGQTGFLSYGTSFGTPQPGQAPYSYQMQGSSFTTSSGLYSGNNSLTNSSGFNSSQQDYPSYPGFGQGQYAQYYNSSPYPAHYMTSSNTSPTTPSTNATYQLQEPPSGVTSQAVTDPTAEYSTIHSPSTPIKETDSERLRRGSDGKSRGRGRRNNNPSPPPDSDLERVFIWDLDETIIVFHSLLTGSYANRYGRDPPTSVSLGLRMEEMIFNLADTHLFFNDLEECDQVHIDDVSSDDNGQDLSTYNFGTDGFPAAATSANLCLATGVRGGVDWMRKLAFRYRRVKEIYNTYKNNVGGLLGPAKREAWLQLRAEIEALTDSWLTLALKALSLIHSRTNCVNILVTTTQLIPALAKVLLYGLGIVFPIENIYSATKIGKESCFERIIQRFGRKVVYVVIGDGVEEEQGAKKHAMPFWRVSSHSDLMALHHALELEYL

Variants of: B1
Settings: with eya1_mouse Eya1, P97767
MSMLPSFGFTQEQVACVCEVLQQGGNLERLGRFLWSLPACDHLHKNESVLKAKAVVAFHRGNFRELYKILESHQFSPHNHPKLQQLWLKAHYVEAEKLRGRPLGAVGKYWVRRKFPLPRTIWDGEETSYCFKEKSRGVLREWYAHNPYPSPREKRELAEATGLTTTQVSNWFKNRRQRDRAAEAKERENTENNNSSSNKQNQLSPLEGGKPLMSSSEEEFSPPQSPDQNSVLLLQSNMGHARSSNYSLPGLTASQPSHGLQAHQHQLQDSLLGPLTSSLVDLGS [R110W] was tested, and the “effect of a mutation on the interaction” value was “decreasing interaction”.
In the case of MSMLPSFGFTQEQVACVCEVLQQGGNLERLGRFLWSLPACDHLHKNESVLKAKAVVAFHRGNFRELYKILESHQFSPHNHPKLQQLWLKAHYVEAEKLRGRPLGAVGKYRVRRKFPLPRTIWDGEETSCCFKEKSRGVLREWYAHNPYPSPREKRELAEATGLTTTQVSNWFKNRRQRDRAAEAKERENTENNNSSSNKQNQLSPLEGGKPLMSSSEEEFSPPQSPDQNSVLLLQSNMGHARSSNYSLPGLTASQPSHGLQAHQHQLQDSLLGPLTSSLVDLGS [Y129C], the “effect of a mutation on the interaction” value is reported as “decreasing interaction”.
